# Assay results as given in patent publication US6472171.
# T1: chicken protein disulfide isomerase, P09102
# T1 chain: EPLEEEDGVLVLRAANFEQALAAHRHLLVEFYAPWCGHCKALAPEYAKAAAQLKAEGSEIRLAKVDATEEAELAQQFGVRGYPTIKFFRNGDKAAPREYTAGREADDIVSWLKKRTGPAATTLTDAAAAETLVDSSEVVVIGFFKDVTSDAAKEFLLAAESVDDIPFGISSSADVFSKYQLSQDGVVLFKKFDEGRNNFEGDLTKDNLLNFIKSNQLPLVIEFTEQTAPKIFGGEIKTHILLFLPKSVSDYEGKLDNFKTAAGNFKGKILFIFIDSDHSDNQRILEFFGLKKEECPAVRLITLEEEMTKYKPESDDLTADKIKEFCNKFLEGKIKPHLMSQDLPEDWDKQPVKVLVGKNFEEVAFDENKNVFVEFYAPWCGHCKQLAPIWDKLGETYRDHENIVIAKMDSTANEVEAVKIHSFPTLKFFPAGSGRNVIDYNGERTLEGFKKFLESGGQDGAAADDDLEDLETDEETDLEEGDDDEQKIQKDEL
# B1: human prolyl 4-hydroxylase subunit (protein)
# chain: HPGFFTSIGQMTDLIHTEKDLVTSLKDYIKAEEDKLEQIKKWAEKLDRLTSTATKDPEGFVGHPVNAFKLMKRLNTEWSELENLVLKDMSDGFISNLTIQRQYFPNDEDQVGAAKALLRLQDTYNLDTDTISKGNLPGVKHKSFLTAEDCFELGKVAYTEADYYHTELWMEQALRQLDEGEISTIDKVSVLDYLSYAVYQQGDLDKALLLTKKLLELDPEHQRANGNLKYFEYIMAKEKDVNKSASDDQSDQKTTPKKKGVAVDYLPERQKYEMLCRGEGIKMTPRRQKKLFCRYHDGNRNPKFILAPAKQEDEWDKPRIIRFHDIISDAEIEIVKDLAKPRLRRATISNPITGDLETVHYRISKSAWLSGYENPVVSRINMRIQDLTGLDVSTAEELQVANYGVGGQYEPHFDFARKDEPDAFKELGTGNRIATWLFYMSDVSAGGATVFPEVGASVWPKKGTAVFWYNLFASGEGDYSTRHAACPVLVGNKWVSNKWLHERGQEFRRPCTLSELE
# B2: chicken prolyl 4-hydroxylase subunit (protein)
# chain: HTDFFTSIGHMTDLINTEKDLVISKLKDYIKAEESKLEQIKKWAEKLDKLTDTATKDPEGFLGHPANAFKLMKRLNTEWGELESLVLKDMSDGFISNMTIQRQFFPNDEDQTGARKALLRLQDTYNLDTDTLSRGNLPGVKHKSFLTAEDCFELGKIRYTEADYYHTELWMEQALKQLDEGEVSSADKVYILDYLSYAVYQQGDLSKAMMLTKRLLELDPEHQRANGNMKYFEYIMAKEKEANKSSTDAEDQTDKETEVKKKDYLPERRKYEMLCRGEGLKMTPRRQKRLFCRYYDGNRNPRYILGPVKQEDEWDKPRIVRFLDIISDEEIETVKELAKPRLSRATVHDPETGKLTTAHYRVSKSAWLSGYESPVVSRINTRIQDLTGLDVSTAEELQVANYGVGGQYEPHFDFGRKDEPDAFKELGTGNRIATWLFYMSDVSAGGATVFPEVGASVWPKKGTAVFWYNLFPSGEGDYSTRHAACPVLVGNKWVSNKWLHERGQEFRRPCTLSELE
# What was measured:
# [1] = target: human protein disulfide isomerase, P07237
# [2] = target: T1, chicken protein disulfide isomerase, …
# human protein disulfide isomerase, P07237, sequence (P07237 18-508): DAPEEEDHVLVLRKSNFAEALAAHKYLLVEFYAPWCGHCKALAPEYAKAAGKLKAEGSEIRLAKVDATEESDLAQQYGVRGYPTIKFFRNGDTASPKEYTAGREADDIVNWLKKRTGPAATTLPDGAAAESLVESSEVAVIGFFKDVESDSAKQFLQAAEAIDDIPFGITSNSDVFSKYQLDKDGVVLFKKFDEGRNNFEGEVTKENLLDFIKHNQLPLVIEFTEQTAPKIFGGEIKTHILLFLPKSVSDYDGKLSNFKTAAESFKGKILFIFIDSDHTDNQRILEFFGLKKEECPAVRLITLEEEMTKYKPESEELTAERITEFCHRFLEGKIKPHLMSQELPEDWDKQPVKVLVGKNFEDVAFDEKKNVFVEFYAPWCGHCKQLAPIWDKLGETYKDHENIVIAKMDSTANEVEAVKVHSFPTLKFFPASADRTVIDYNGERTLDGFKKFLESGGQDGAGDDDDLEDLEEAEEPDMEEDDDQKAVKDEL
Protein,"production of hydroxylated, heterotrimeric type 1 procollagen in yeast (plasmid Gp5565, hPDI/hP4-H) [1] [times lower]","production of hydroxylated, heterotrimeric type 1 procollagen in yeast (plasmid Gp5511, cPDI/hP4-H) [2]","production of hydroxylated, heterotrimeric type 1 procollagen in yeast (plasmid Gp5563, cPDI/cP4-H) [2]"
B1,< 3,Plasmid Gp5511 (cPDI/hP4-H) generated the first hydroxylated type 1 (α1α2) procollagen expressed in yeast,
B2,,,produce levels of hydroxylated heterotrimeric procollagen equal to that found with plasmid Gp5511
